Among the data in paper PMC4716839 are nuclease activity: cleavage of the Rpa-coated 5’ stem-loop overhang substrate 5’SL24 (15 nM, 15 nM Rpa), fold reduction compared to intact Dna2 and binding signal (% reduction of bound Rpa by Dna2 D278A) values, retold here.

Series [1] has as its target mouse Rpa heterotrimer (Rpa70, Rpa32, Rpa14) (mouse) (UniProt Q8VEE4).
The target in series [2] is Rpa heterotrimer (Rpa70/Rpa32/Rpa14) (Mus musculus) (UniProt Q8VEE4+Q62193+Q9CQ71). Nature of the series: bead pull-down. Conditions: Dna2 D278A added after Rpa loading; EMSA: 20 mM Tris-HCl pH 8.0, 80 mM NaCl, 0.3 mM TCEP, 0.2 mg/mL BSA, 2% glycerol, on ice 30 min, 0.075 or 0.3 nM 32P-DNA; 4% native PAGE, 1x TB, 4 C.
Rpa heterotrimer (Rpa70/Rpa32/Rpa14) (Mus musculus), sequence (Q8VEE4 whole entry, chain 1 of 3): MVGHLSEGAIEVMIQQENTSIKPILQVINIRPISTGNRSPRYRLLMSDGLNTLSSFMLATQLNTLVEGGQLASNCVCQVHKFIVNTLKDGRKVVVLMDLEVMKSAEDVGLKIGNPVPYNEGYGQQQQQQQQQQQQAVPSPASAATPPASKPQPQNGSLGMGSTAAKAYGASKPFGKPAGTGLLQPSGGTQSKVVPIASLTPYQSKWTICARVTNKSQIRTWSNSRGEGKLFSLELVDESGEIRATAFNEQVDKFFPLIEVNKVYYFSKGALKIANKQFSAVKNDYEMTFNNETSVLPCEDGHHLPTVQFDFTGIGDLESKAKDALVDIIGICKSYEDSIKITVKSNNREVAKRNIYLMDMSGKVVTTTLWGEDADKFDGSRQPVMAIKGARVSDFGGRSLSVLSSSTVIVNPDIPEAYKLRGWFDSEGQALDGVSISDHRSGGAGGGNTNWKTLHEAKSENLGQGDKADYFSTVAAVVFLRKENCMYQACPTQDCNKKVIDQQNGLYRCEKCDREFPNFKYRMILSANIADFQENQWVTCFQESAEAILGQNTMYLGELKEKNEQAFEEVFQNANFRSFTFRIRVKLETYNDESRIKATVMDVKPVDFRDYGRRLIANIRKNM
Rpa heterotrimer (Rpa70/Rpa32/Rpa14) (Mus musculus), sequence (Q62193 whole entry, chain 2 of 3): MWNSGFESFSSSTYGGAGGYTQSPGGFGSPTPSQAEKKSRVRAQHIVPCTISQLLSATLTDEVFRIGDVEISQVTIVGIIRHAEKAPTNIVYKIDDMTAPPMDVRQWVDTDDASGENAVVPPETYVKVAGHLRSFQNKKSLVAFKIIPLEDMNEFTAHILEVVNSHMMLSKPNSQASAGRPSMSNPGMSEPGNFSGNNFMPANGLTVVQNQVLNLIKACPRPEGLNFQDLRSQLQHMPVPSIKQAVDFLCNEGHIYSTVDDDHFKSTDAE
Rpa heterotrimer (Rpa70/Rpa32/Rpa14) (Mus musculus), sequence (Q9CQ71 whole entry, chain 3 of 3): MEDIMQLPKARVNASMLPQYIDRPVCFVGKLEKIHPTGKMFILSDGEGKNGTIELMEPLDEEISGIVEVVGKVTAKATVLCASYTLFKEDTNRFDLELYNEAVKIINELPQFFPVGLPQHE

α1-deleted mouse Dna2, sequence (Q6ZQJ5 1-1056, stated change not applied): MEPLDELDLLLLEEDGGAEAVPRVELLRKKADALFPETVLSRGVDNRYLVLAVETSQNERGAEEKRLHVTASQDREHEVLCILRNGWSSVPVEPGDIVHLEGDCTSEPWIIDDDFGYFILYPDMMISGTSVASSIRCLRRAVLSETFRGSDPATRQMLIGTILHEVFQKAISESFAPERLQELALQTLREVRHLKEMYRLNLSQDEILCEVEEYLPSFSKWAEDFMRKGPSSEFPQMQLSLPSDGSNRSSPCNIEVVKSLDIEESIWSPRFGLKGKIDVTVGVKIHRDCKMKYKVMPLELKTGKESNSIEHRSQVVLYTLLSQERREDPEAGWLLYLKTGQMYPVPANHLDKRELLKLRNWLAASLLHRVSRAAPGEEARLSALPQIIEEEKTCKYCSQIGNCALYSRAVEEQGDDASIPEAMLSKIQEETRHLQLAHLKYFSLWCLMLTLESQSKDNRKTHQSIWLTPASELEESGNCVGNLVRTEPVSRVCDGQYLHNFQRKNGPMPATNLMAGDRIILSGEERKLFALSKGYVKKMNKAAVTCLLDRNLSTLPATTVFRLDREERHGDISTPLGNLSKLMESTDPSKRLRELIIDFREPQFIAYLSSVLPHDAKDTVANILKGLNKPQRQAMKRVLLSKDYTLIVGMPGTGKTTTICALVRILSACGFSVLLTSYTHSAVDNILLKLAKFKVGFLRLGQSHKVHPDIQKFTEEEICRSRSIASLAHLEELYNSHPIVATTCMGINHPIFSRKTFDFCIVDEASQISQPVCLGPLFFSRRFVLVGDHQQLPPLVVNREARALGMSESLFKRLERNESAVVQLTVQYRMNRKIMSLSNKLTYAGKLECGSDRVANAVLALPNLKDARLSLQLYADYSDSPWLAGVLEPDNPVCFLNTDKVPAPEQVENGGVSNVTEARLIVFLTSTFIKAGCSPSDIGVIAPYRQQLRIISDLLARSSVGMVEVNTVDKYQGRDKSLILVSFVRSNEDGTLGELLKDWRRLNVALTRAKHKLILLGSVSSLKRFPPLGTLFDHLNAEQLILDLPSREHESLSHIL
mouse Rpa heterotrimer (Rpa70, Rpa32, Rpa14) (mouse), sequence (Q8VEE4 whole entry, chain 1 of 3): as the sequence (Q8VEE4 whole entry, chain 1 of 3) above
mouse Rpa heterotrimer (Rpa70, Rpa32, Rpa14) (mouse), sequence (Q62193 whole entry, chain 2 of 3, further chain): as the sequence (Q62193 whole entry, chain 2 of 3) above
mouse Rpa heterotrimer (Rpa70, Rpa32, Rpa14) (mouse), sequence (Q9CQ71 whole entry, chain 3 of 3, further chain): as the sequence (Q9CQ71 whole entry, chain 3 of 3) above

Regarding “α1-deleted mouse Dna2 (from UniProt Q6ZQJ5 1-1056) (enzyme)”, the nuclease activity: cleavage of the Rpa-coated 5’ stem-loop overhang substrate 5’SL24 (15 nM, 15 nM Rpa), fold reduction compared to intact Dna2 in series [1] was determined as 2 fold.

In turn, 3'-(dT)26 overhang DNA, biotinylated gave a binding signal (% reduction of bound Rpa by Dna2 D278A) in series [2] of 5.

Take 5'-(dT)26 overhang DNA, biotinylated: the binding signal (% reduction of bound Rpa by Dna2 D278A) in series [2] was 30.
